Molecular target: the molecule itself
Assay: cross-linking

B1: centromere protein B (CENP-B), full-size, from HeLa nuclei (natural protein)
chain: MGPKRRQLTFREKSRIIQEVEENPDLRKGEIARRFNIPPSTLSTILKNKRAILASERKYGVASTCRKTNKLSPYDKLEGLLIAWFQQIRAAGLPVKGIILKEKALRIAEELGMDDFTASNGWLDRFRRRHGVVSCSGVARARARNAAPRTPAAPASPAAVPSEGSGGSTTGWRAREEQPPSVAEGYASQDVFSATETSLWYDFLPDQAAGLCGGDGRPRQATQRLSVLLCANADGSEKLPPLVAGKSAKPRAGQAGLPCDYTANSKGGVTTQALAKYLKALDTRMAAESRRVLLLAGRLAAQSLDTSGLRHVQLAFFPPGTVHPLERGVVQQVKGHYRQAMLLKAMAALEGQDPSGLQLGLTEALHFVAAAWQAVEPSDIAACFREAGFGGGPNATITTSLKSEGEEEEEEEEEEEEEEGEGEEEEEEGEEEEEEGGEGEELGEEEEVEEEGDVDSDEEEEEDEESSSEGLEAEDWAQGVVEAGGSFGAYGAQEEAQCPTLHFLEGGEDSDSDSEEEDDEEEDDEDEDDDDDEEDGDEVPVPSFGEAMAYFAMVKRYLTSFPIDDRVQSHILHLEHDLVHVTRKNHARQAGVRGLGHQS
- stoichiometry N: 2
